Data as given in doi:10.1101/511758 (bioRxiv, 2019).
Read-outs that look alike come from different tables or passages of the source.

What was measured:
HelQ [1] = molecular target: T1, HelQ (Homo sapiens, UniProt Q8TDG4); test: EMSA
T1 sequence: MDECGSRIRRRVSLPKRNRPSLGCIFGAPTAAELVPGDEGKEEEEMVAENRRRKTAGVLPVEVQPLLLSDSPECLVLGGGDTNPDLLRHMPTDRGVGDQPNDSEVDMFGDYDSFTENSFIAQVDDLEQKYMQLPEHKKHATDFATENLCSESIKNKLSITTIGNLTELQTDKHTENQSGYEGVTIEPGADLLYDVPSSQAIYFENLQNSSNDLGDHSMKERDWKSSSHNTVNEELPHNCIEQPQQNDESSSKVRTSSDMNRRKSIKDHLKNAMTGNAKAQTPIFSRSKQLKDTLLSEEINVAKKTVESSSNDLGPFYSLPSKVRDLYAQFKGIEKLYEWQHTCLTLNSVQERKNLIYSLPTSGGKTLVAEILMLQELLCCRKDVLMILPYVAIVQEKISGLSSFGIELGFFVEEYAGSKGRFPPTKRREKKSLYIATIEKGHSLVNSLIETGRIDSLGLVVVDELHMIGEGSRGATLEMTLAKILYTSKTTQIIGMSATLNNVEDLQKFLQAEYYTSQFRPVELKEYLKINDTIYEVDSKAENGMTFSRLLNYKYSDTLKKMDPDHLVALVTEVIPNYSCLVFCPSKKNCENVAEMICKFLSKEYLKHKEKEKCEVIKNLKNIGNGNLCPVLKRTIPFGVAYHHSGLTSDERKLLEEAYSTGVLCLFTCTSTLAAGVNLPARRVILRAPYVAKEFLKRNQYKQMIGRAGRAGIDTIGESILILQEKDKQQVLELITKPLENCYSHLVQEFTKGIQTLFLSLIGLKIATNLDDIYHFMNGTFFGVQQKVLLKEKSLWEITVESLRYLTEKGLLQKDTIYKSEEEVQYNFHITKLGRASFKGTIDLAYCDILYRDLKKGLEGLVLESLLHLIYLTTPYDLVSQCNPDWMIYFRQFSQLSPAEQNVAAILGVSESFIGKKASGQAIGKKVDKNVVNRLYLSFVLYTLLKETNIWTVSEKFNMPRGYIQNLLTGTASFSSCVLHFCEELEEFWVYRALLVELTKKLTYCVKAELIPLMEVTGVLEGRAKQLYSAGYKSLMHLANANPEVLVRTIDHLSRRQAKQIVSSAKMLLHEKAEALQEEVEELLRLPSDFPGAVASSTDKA

SEC-MALS = molecular target: the molecule itself; test: SEC-MALS
SSB = SSB (Escherichia coli, UniProt P0AGE0 1-178); test: EMSA
Chain of SSB (P0AGE0 whole entry): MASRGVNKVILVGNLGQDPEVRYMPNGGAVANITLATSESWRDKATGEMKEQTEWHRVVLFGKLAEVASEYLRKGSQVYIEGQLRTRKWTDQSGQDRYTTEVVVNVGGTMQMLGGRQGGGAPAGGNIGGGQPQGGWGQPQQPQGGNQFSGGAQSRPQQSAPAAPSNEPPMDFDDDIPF

HelQ [2] = molecular target: T1, HelQ; test: EMSA; remark: listed apart in the source
N-HelQ = molecular target: T2, N-HelQ (Homo sapiens, UniProt Q8TDG4 1-417); test: EMSA
T2 sequence: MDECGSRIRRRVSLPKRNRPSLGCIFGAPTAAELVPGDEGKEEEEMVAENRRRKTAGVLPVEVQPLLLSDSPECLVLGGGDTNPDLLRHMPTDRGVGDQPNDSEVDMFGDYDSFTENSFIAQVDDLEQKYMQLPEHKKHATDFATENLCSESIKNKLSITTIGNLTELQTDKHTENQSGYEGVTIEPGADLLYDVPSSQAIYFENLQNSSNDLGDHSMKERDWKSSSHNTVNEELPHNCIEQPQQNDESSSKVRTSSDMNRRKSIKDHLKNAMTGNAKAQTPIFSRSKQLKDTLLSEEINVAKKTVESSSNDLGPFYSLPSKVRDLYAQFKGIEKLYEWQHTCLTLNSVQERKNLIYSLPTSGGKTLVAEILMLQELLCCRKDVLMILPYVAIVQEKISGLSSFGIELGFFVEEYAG

HelQ;RPA = HelQ;RPA (Homo sapiens;Homo sapiens, UniProt Q8TDG4;P27694;P15927;P35244 ;1-616;1-270;1-121, |); test: EMSA
Chain of HelQ;RPA (P27694 whole entry, chain 2 of 3): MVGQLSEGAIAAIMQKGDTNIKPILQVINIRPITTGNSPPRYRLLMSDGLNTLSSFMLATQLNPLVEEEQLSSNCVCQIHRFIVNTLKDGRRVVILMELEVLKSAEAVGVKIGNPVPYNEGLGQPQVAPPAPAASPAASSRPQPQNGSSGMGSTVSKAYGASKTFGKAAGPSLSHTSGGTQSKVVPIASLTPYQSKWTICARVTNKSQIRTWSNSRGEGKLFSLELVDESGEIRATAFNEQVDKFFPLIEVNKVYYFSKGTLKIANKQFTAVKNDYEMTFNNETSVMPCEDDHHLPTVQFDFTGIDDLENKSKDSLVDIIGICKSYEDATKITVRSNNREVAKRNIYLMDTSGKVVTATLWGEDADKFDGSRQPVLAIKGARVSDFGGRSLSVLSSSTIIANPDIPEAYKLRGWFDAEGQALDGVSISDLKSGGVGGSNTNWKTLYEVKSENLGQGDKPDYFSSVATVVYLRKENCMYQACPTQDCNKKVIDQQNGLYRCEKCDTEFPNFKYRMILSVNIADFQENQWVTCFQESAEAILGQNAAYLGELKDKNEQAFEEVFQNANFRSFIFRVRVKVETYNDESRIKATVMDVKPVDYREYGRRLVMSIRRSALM
Chain of HelQ;RPA (P15927 whole entry, chain 3 of 3): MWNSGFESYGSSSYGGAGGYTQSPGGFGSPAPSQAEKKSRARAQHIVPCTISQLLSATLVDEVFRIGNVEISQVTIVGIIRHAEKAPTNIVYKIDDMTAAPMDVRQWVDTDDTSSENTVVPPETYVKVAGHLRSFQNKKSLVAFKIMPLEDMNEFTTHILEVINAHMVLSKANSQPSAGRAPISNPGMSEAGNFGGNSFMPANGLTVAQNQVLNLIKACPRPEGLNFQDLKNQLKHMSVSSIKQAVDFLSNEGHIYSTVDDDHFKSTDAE
Chain of HelQ;RPA (P35244 whole entry, chain 4 of 3): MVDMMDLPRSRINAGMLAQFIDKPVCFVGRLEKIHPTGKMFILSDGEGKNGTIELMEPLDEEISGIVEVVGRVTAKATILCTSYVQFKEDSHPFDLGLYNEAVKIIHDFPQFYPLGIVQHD

N-HelQ;RPA = N-HelQ;RPA (Homo sapiens;Homo sapiens, UniProt Q8TDG4;P27694;P15927;P35244 1-417;1-616;1-270;1-121, |); test: EMSA
Chain of N-HelQ;RPA (P27694 whole entry, chain 2 of 3): as the sequence (P27694 whole entry, chain 2 of 3) above
Chain of N-HelQ;RPA (P15927 whole entry, chain 3 of 3): as the sequence (P15927 whole entry, chain 3 of 3) above
Chain of N-HelQ;RPA (P35244 whole entry, chain 4 of 3): as the sequence (P35244 whole entry, chain 4 of 3) above

B1: Fork-Me (mixed)
DNA 1: GTCGGATCCTCTAGACAGCATCCATGATCACTGGCACTGGTAGAATTCGGC
DNA 2: CAACGTCATAGACGATTACATTGCTACATGGATGCTGTCTAGAGGATCCGA
modifications: single methylphosphonate linkage in the 3'-5' tracking strand (position marked only in Fig S6)
binding result (HelQ [1]): binds

B2: human HelQ helicase (full-length HelQ) (enzyme)
chain: T1 sequence
stoichiometry N (SEC-MALS): 2

B3: Fork-A (mixed)
DNA 1: GTCGGATCCTCTAGACAGCTCCATGATCACTGGCACTGGTAGAATTCGGC
DNA 2: CAACGTCATAGACGATTACATTGCTACATGGAGCTCTCTAGAGGATCCGA
binding result (SSB): binds | binding result (HelQ [2]): binds | binding result (N-HelQ): no binding | binding result (HelQ;RPA): binds | binding result (N-HelQ;RPA): binds

B4: Fork-S (mixed)
DNA 1: B3 DNA 1
DNA 2: B3 DNA 2
modifications: single phosphorothioate linkage in the 3'-5' tracking strand (position marked only in Fig S6)
binding result (HelQ [1]): binds

B5: Fork-AP (mixed)
DNA 1: B3 DNA 1
DNA 2: B3 DNA 2
modifications: single abasic site in the 3'-5' tracking strand (position marked only in Fig S6)
binding result (HelQ [1]): binds
